Experimental data from patent US20200239888.
Like-named read-outs stand apart in the source and are kept apart here.

Assays:
[1] = biological target: NanoLuc luciferase control (NLUC-HA) (UniProt Q9GV45); settings: full PS, nanoBRET, control protein
[2] = biological target: FUS(375-526)[P525L][R/S in 375-422]-NLUC-HA P525L; all Arg to Ser in 375-422 (UniProt P35637); settings: full PS, nanoBRET
[3] = biological target: FUS(375-526)[P525L][R/S in 454-526]-NLUC-HA P525L; all Arg to Ser in 454-526 (UniProt P35637); settings: full PS, nanoBRET
[4] = biological target: FUS(1-526)[P525L][R/S in 375-422 and 454-526]-NLUC-FLAG P525L; all Arg to Ser in 375-422 and 454-526 (UniProt P35637); settings: nanoBRET
[5] = tested on: HA-NES-β23-NLUC (artificial); settings: full PS, nanoBRET, control fusion
[6] = biological target: HA-NES-β23-NLUC-FUS(375-526)[P525L][R/S in 375-422 and 454-526] P525L; all Arg to Ser in 375-422 and 454-526 (UniProt P35637); settings: full PS, nanoBRET
[7] = 2'-MOE at 1-5 and 16-20, DNA at 6-15, all C 5mC
[8] = cEt at 1-5 and 16-20, DNA at 6-15, all C 5mC
[9] = 2'-F at 1-5 and 16-20, DNA at 6-15, 5mC at C8, C9, C11

Sequence: CTGCTAGCCTCTGGATTTGA [766633 (2'-MOE 5-10-5 gapmer)]
- Kd ([1]; 2'-MOE at 1-5 and 16-20, DNA at 6-15, all C 5mC, 100 mM KOAc, 20 mM Tris pH 8.0, 1 mM EDTA, 0.01% NP-40, RT): > 1000 nM
- Kd [2, 7]: 12.4 nM
- Kd [3, 7]: 282 nM
- Kd ([4]; 2'-MOE at 1-5 and 16-20, DNA at 6-15, full PS, all C 5mC): 1.6 nM
- Kd [5, 7]: > 1000 nM
- Kd [6, 7]: > 1000 nM

Sequence: CTGCTAGCCTCTGGATTTGA [766635 (cEt 5-10-5 gapmer)]
- Kd [1, 8]: > 1000 nM
- Kd [2, 8]: 14.3 nM
- Kd [3, 8]: 290 nM
- Kd ([4]; cEt at 1-5 and 16-20, DNA at 6-15, full PS, all C 5mC): 3.7 nM
- Kd [5, 8]: 950 nM
- Kd [6, 8]: > 1000 nM

Sequence: CUGCUAGCCTCTGGAUUUGA [766637 (2'-F 5-10-5 gapmer)]
- Kd [1, 9]: > 1000 nM
- Kd [2, 9]: 1.8 nM
- Kd [3, 9]: 38.4 nM
- Kd ([4]; 2'-F at 1-5 and 16-20, DNA at 6-15, full PS, 5mC at C8, C9, C11): 0.3 nM
- Kd [5, 9]: 345 nM
- Kd [6, 9]: 200 nM

Sequence: CUGCUAGCCUCUGGAUUUGA [JB39 (RNA, phosphodiester)]
- Kd [4]: 248 nM
